Test [1] addresses T1, human LRP6 construct E3E4 (amino acids E631-Q1253) (human, UniProt O75581 631-1253, biotinylated for biolayer interferometry).
T1 construct: range 631-1253; also called LRP6 E3E4
T1 sequence (looked up): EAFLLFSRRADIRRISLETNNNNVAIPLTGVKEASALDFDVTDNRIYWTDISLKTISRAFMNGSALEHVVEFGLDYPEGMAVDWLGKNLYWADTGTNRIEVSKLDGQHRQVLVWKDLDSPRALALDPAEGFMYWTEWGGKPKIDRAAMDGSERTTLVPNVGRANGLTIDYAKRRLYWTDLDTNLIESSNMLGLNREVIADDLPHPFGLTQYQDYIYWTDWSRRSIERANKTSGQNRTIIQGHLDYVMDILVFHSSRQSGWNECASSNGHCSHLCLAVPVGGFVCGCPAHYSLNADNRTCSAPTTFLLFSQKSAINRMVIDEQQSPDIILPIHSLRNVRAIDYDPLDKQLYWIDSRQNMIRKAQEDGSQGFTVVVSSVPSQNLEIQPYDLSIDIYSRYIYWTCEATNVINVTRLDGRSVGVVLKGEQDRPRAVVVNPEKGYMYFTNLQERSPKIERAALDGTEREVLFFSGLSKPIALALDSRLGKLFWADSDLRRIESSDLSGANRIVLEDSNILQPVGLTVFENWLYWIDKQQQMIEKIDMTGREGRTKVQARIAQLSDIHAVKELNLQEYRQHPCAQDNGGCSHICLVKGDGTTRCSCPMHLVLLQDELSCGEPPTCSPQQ
In words: BLI (Octet Red), biotinylated LRP6 on streptavidin tips, steady state. Here is the method: (§1) Binding kinetics were measured by biolayer interferometry using an Octet Red instrument (ForteBio) as previously described (11). Streptavidin (SA) biosensors were loaded with biotinylated hLRP6 in 50 mMTris, pH 8, 300 mM NaCl, 5% (v/v) glycerol, and 0.05% (w/v) Triton X-100. The loaded biosensors were washed in the same buffer before carrying out association and dissociation measurements for the indicated times. The Kd of each interaction was determined using steady state-analysis through the Octet Red software v6.3. Each reported value represents an average of three or more experiments at different concentrations, with a fitted experimental curve for which the square of the correlation coefficient (R²) is above 0.96.
(In BLI a coated tip is dipped into the sample, and binding shifts an interference pattern.)

The target of test [2] is T2, human LRP6 construct E1E2 (amino acids A20-E631) (human, UniProt O75581 20-631, biotinylated for biolayer interferometry).
T2 construct: range 20-631; also called LRP6 E1E2
T2 sequence (looked up): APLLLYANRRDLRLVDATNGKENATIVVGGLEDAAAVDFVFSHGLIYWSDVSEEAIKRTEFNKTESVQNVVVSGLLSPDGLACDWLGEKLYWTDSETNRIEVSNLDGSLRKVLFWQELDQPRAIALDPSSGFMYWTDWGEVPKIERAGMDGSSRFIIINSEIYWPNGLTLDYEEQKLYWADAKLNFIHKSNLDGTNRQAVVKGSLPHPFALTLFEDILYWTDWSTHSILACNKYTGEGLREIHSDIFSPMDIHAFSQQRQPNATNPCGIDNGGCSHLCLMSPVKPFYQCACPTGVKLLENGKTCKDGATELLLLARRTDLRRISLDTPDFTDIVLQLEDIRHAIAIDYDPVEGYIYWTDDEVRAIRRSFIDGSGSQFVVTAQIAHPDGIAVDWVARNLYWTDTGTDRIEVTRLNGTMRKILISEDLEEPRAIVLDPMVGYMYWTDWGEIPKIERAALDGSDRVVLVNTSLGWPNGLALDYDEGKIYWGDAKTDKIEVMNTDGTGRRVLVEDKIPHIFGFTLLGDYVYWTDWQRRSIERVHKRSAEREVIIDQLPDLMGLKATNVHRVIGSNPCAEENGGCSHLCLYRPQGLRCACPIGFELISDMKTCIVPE
The test is described as above. The procedure:
as §1

The next test concerns the target T3, LRP6 E1E4 (Homo sapiens, UniProt O75581).
T3 construct: construct E1E4-amino acids A20-Q1253 of LPR6; made in house; host or cells: Tni insect cells (baculovirus, secreted)
T3 sequence (O75581 20-1253): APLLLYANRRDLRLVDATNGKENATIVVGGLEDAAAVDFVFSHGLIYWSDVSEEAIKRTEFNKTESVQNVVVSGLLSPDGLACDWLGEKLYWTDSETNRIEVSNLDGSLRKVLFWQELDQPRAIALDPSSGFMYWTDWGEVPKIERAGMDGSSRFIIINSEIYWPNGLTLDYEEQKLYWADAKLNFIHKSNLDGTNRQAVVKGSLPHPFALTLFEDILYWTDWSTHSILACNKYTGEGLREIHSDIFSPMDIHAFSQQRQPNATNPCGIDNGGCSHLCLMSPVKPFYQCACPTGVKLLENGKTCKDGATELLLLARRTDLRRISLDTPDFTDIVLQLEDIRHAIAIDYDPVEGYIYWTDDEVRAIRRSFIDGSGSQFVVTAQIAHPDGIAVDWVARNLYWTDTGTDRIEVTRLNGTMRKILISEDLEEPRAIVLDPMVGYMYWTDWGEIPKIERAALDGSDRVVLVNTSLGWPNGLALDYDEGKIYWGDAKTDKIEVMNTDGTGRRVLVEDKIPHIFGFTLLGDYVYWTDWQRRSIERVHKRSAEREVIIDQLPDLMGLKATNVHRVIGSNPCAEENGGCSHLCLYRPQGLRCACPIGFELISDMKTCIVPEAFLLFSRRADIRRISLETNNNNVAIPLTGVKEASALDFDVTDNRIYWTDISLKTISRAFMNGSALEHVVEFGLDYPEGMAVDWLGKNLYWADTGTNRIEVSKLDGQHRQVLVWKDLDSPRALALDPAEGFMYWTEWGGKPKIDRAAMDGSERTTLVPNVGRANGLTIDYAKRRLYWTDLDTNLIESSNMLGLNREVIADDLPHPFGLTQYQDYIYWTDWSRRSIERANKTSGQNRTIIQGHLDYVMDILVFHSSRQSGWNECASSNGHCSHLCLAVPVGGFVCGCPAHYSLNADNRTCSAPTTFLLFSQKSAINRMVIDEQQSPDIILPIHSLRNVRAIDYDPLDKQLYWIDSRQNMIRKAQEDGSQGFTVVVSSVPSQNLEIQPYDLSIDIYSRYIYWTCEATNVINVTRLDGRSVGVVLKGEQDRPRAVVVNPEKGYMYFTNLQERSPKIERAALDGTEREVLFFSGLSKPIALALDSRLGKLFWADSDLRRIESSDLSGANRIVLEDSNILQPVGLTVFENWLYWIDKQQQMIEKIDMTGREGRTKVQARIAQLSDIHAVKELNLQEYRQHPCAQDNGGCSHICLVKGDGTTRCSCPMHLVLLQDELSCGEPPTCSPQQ
Description: Biolayer interferometry binding to LRP6 E1E4. The procedure: as §1, with “(R^2)” for “(R²)”
(§2) The interaction of the different Dkks and sclerostin with various domains of LRP6 was measured using a biolayer interferometry assay (11). Purified receptors contained individual β-propeller-EGF-like units (E1, E2, or E4), two β-propellers (E1E2 or E3E4), or four β-propellers (E1E4))—as follows:
(§3) Human LRP6: construct E1E4-amino acids A20-Q1253 of LPR6; construct E1E2-amino acids A20-E631 of LPR6; construct E3E4 amino acids E631-Q1253 of LPR6; construct E1-amino acids A20-D325 of LPR6; construct E2-amino acids […]-E631 of LPR6; construct E4-T933-Q1253. The individual LRP6 β-propeller E3 could not be expressed.

The next test has as its target T4, LRP6 E3E4 (Homo sapiens, UniProt O75581).
T4 construct: construct E3E4 amino acids E631-Q1253 of LPR6; made in house; host or cells: Tni insect cells (baculovirus, secreted)
T4 sequence (O75581 631-1253): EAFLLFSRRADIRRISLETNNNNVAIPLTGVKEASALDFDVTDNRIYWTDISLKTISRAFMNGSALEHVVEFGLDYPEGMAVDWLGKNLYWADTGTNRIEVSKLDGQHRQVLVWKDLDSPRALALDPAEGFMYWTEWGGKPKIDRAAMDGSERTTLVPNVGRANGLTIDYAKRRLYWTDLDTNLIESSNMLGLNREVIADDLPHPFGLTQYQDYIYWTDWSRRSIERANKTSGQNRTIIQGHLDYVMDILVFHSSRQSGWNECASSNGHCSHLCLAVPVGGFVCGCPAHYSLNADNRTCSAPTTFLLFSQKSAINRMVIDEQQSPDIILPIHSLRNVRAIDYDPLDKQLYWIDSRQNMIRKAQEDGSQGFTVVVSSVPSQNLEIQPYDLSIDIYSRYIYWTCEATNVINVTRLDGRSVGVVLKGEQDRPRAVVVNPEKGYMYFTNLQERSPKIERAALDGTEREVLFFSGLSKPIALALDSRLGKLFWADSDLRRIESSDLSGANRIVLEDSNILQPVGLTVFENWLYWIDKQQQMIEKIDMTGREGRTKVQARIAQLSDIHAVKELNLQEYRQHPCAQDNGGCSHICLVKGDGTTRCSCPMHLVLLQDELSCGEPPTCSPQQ
In words: Biolayer interferometry binding to LRP6 E3E4. Here is the method: as §1, with “(R^2)” for “(R²)”
as §2, §3

Test [3] concerns the target T5, human LRP6 construct E1E4 (amino acids A20-Q1253) (human, UniProt O75581 20-1253, biotinylated for biolayer interferometry).
T5 construct: range 20-1253; Expressed in Tni insect cells; tags not specified for this construct; also called LRP6 E1E4
T5 sequence (looked up): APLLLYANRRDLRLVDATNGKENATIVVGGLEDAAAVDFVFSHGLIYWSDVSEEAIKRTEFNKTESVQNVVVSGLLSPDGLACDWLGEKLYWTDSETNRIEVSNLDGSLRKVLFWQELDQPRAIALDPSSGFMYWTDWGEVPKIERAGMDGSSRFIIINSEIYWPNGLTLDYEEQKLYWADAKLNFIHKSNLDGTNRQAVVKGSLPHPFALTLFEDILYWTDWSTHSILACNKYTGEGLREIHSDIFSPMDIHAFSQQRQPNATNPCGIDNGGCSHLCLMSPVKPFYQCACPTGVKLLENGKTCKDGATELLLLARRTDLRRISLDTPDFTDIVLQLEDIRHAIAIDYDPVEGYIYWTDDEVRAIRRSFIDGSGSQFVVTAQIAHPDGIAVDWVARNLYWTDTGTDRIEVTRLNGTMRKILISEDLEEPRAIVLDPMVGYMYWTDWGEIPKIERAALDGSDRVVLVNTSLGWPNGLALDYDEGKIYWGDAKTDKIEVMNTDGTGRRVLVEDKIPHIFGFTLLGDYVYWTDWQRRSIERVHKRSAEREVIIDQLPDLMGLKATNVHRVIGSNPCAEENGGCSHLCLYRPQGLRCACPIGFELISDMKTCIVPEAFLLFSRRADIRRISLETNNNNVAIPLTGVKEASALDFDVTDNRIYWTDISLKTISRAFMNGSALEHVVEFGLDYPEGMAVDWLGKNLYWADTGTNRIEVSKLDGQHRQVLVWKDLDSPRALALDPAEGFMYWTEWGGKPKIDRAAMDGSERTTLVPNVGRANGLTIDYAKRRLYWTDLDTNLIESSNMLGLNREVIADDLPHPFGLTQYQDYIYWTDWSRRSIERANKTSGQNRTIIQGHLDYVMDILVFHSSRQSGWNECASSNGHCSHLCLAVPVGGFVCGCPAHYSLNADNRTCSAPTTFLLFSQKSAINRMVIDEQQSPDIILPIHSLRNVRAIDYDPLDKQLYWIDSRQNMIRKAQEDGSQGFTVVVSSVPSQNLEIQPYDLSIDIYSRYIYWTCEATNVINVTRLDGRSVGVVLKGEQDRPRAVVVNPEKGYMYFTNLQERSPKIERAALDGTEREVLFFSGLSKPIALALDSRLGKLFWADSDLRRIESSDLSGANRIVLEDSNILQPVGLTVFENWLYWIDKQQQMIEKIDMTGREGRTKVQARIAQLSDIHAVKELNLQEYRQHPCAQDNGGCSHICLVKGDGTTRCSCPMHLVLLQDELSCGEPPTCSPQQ
Description: BLI (FIG. 9B). The procedure: as §1

Test [4] addresses T2, human LRP6 construct E1E2 (amino acids …). In words: BLI (FIG. 9B). The procedure:
as §1

The results in this text go back to patent US20140235820A1, “METHODS AND COMPOSITIONS FOR MODULATING THE Wnt PATHWAY” (Genentech, Inc., priority 2010, published 2014).

Entries after “also recorded” stand apart in the source; their conditions may differ.

B1: Dkk2 (ligand)
chain: KLNSIKSSLGGETPAQSANRSAGMNQGLAFGGSKKGKSLGQAYPCSSDKECEVGRYCHSPHQGSSACMLCRRKKKRCHRDGMCCPGTRCNNGICIPVTESILTPHIPALDGTRHRDRNHGHYSNHDLGWQNLGRPHSKMPHIKGHEGDPCLRSSDCIDGFCCARHFWTKICKPVLHQGEVCTKQRKKGSHGLEIFQRCDCAKGLSCKVWKDATYSSKARLHVCQKI
As for B1, the Kd (usually the concentration at which binding is half-saturated) in test [1] was 38 nM; in test [2], 53 nM.

B2: Dkk1 H204E (ligand, human, UniProt O94907 32-266, looked up)
chain: TLNSVLNSNAIKNLPPPLGGAAGHPGSAVSAAPGILYPGGNKYQTIDNYQPYPCAEDEECGTDEYCASPTRGGDAGVQICLACRKRRKRCMRHAMCCPGNYCKNGICVSSDQNHFRGEIEETITESFGNDHSTLDGYSRRTTLSSKMYHTKGQEGSVCLRSSDCASGLCCAREFWSKICKPVLKEGQVCTKHRRKGSHGLEIFQRCYCGEGLSCRIQKDHHQASNSSRLHTCQRH
With B2, in the test with LRP6 E1E4, the “binding to LRP6 E1E4 (in words)” value is “retain binding”. Besides, in the test with LRP6 E3E4, the “binding to LRP6 E3E4 (in words)” value is “interfered with binding; also recorded: affect binding”. Moreover, the binding result in test [3] and in test [4] was “binds” each time.
